These results are taken from US20110086364A1 (TEKNOLOGIAN TUTKIMUSKESKUS VTT, published 2011).

The target of the assay is T1, immune complex of anti-THC T3 Fab and THC (tetrahydrocannabinol).
T1 construct: the target is the Fab-hapten complex; The Fab was labeled with europium (LANCE Eu-W1024 ITC chelate) for TR-FRET and biotinylated for phage selection; also called T3+THC complex; T3+THC immune complex
The assay can be described thus: homogeneous TR-FRET in saliva: Eu-labeled T3 Fab, Alexa Fluor 647-labeled Fab 104, spiked THC. How it is done: 40 μl saliva samples spiked with 0, 3.75, 7.5, 15, 30, 60 and 120 ng/ml of the following drugs: D9-THC, 11-OH-D9-THC, 11-nor-D9-THC-COOH, heroin and amphetamine were added to the wells. After short mixing, the time resolved fluorescence resonance energy transfer (TR-FRET) was measured by Victor V fluorometer (Perkin Elmer Wallac).
(In general: Time-resolved FRET reads energy transfer from a long-lived donor to a nearby acceptor.)

T1 sequence (VH, as listed by the source, chain 1 of 2): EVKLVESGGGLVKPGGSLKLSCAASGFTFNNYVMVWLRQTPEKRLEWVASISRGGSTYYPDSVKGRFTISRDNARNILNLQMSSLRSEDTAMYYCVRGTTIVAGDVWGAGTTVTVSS
T1 sequence (VL, as listed by the source, chain 2 of 2): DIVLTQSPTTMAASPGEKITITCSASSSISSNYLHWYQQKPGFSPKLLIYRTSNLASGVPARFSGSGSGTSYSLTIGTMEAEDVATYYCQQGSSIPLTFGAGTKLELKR

B1: anti-T3+THC immune complex Fab 104 (Fab, V domains shown)
VH: QVQLVQSGTEVKKPGATVKISCKFSGDNFIDYYMHWVKQAQGKGLEWLGLVDLGDGQTIYAEKFHGRGTITADSSRDTAYMELSSLRSEDTAVYYCAAAKAYRQGVMDVWGQGTLVTVSS
VL: NFMLTQPHSVSESPGKTVTISCTGSSGSIASNYVQWYQQRPGSAPTTVIYEDNQRPSGVPDRFSGSIDSSSNSASLTISGLKTEDEADYYCQSYDSSNQVFGGGTKLTVLG
notes: Labeled with Alexa Fluor 647 for the TR-FRET assay
Take B1: the binding result is on record as “binds”.
